Test results from publication PMC8522838 (2021).

B1: SmBiT-MYC 1-190 [human] / TRRAP 2033-2283-LgBiT [not stated] (parent complex)
chain 1: MPLNVSFTNRNYDLDYDSVQPYFYCDEEENFYQQQQQSELQPPAPSEDIWKKFELLPTPPLSPSRRSGLCSPSYVAVTPFSLRGDNDGGGGSFSTADQLEMVTELLGGDMVNQSFICDPDDETFIKNIIIQDCMWSGFSAAAKLVSEKLASYQAARKDSGSPNPARGHSVCSTSSLYLQDLSAAASECID
chain 2: NSSGEGVNSVSSSIKRGLSVDSAQEVKRFRTATGAISAVFGRSQSLPGADSLLAKPIDKQHTDTVVNFLIRVACQVNDNTNTAGSPGEVLSRRCVNLLKTALRPDMWPKSELKLQWFDKLLMTVEQPNQVNYGNICTGLEVLSFLLTVLQSPAILSSFKPLQRGIAACMTCGNTKVLRAVHSLLSRLMSIFPTEPSTSSVASKYEELECLYAAVGKVIYEGLTNYEKATNANPSQLFGTLMILKSACSNNP

Variants of: B1
Test: luminescence complementation (NanoBiT) in transfected cells; normalized for MYC expression level; parent: 100; read off a plot

percent of parent	Variant
~35 % RLU to WT	chain 1 W135A
~24 % RLU to WT	chain 1 F138A
~43 % RLU to WT	chain 1 M134A
~77 % RLU to WT	chain 1 S136A
~102 % RLU to WT	chain 1 T58I
